Changes are numbered by the printed parent chain.

Usually Kd stands for the free concentration of one partner at which half of the binding sites on the other are occupied at equilibrium, for simple one-to-one binding. Read a low Kd as tighter binding. Broadly, the koff is the rate constant with which the complex falls apart. Lower therefore signals a long-lived complex. A word on the kon: it is a measure of how fast the partners come together.

Test [1] concerns the target T1, mouse BMP6 (R&D Systems, Cat #6325-BM) (mouse, UniProt P20722 372-510, limits assumed).
T1 sequence: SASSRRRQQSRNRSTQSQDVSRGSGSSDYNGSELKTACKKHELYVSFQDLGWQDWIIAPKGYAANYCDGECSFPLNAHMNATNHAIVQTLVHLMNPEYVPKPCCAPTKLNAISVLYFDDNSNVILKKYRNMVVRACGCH
Put plainly: cell-based or functional assay.

Test [2] has as its target T2, human BMP6 (R&D Systems, Cat #507-BP) (human, UniProt P22004 375-513, limits assumed).
T2 sequence: T1 sequence with S21A, G23V, G25S, S26A, G31S, K39R
Put plainly: cell-based or functional assay.

The target of test [3] is T1, mouse BMP6 (R&D Systems, Cat #6325-BM). Description: SPR (MASS-1), mAb captured on anti-human Fc, mBMP6 in solution, 25 C. The protocol:
(§1) Equilibrium dissociation constants (KD values) for human and mouse BMP6 binding to purified anti-BMP6 monoclonal antibodies of this invention were determined using a real-time surface plasmon resonance (SPR) biosensor instrument, MASS-1. All binding studies were performed in 10 mM HEPES, 150 mM NaCl, 3 mM EDTA, 1 μg/mL Heparin, and 0.05% v/v Surfactant Tween-20, pH 7.4 (HBS-EHT) running buffer at 25° C. and 37° C. The HCA sensor surface was first derivatized by amine coupling the monoclonal mouse anti-human Fc antibody (GE, #BR100839) and anti-BMP6 monoclonal antibodies were individually captured. Different concentrations of human BMP6 reagents (hBMP6; R&D Systems, Cat #507-BP; 60 nM-0.94 nM; 4-fold serial dilution) or mouse BMP6 (mBMP6; R&D Systems, Cat #6325-BM; 60 nM and 15 nM) prepared in HBS-EHT running buffer were injected over the captured anti-BMP6 monoclonal antibody for 4 minutes at a flow rate of 30 μL/minute, while the dissociation of BMP6 reagent bound to captured anti-BMP6 monoclonal antibody was monitored for 10 minutes in HBS-EHT running buffer. Kinetic association (kₐ) and dissociation (kd) rate constants were determined by fitting the real-time binding sensorgrams to a 1:1 binding model with mass transport limitation using Scrubber 2.0c software. Binding dissociation equilibrium constant (KD) and dissociative half-life (t½) for different anti-BMP6 monoclonal antibodies were calculated from the kinetic rate constants as: […]

In another test the target is T3, Human BMP7 (human, UniProt P18075 293-431).
T3 sequence (looked up): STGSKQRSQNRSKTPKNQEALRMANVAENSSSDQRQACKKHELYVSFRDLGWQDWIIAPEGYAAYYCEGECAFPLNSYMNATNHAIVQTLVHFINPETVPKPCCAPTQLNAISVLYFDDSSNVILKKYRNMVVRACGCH
Put plainly: BLI (Octet HTX), mAb captured on Protein A sensor, 100 nM ligand, 25 C. The method, then:
(§2) Binding cross-reactivity of anti-BMP6 monoclonal antibodies to BMP6 family members, (Human: BMP6, BMP5, BMP7, BMP8A, BMP9, BMP10, BMP12, BMP14, BMP3b, Activin A, and GDF3 and mouse: BMP6 and GDF6) was determined using a real-time Bio-Layer Interferometry (BLI) biosensor using Octet HTX instrument. All binding studies were performed in 10 mM HEPES, 150 mM NaCl, 3 mM EDTA, 1 mg/mL BSA, 50 μg/mL Heparin, and 0.05% v/v Surfactant Tween-20, pH 7.4 (HBS-EBHT) buffer at 25° C. with the plate shaking at a speed of 1000 rpm. To assess binding cross-reactivity, Protein A coated Octet biosensor (Pall ForteBio Corp., #18-5010) was first dipped in wells containing […] of anti-BMP6 monoclonal antibodies for 4 minutes followed by submerging in wells containing 100 nM of different BMP6 family members for 4 minutes. The biosensors were washed in HBS-EBHT buffer in between every step of the experiment. At the end of each cycle, the Protein A biosensor was regenerated using three alternate 5 second dips in 10 mM Glycine pH 2.0 and 10 second dip HBS-EBHT buffer. The real-time binding response was monitored during the course of the experiment and the binding response at the end of every step was recorded and tabulated as shown in Tables 8A and 8B.
(Biolayer interferometry detects binding as a change in optical thickness at a sensor tip.)

For another test, the target named is T4, Human BMP12/GDF7 (human, UniProt Q7Z4P5 322-450, limits assumed).
T4 sequence (looked up): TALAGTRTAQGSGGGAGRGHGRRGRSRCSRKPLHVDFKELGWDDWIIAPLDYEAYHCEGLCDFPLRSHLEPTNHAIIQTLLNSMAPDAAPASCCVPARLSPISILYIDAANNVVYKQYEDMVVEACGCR
Described as above. The method, then: as §2

The target in test [4] is T1, mouse BMP6 (R&D Systems, Cat #6325-BM). Description: SPR (MASS-1), mAb captured on anti-human Fc, mBMP6 in solution, 37 C. The protocol:
as §1

Test [5] deals with T2, human BMP6 (R&D Systems, Cat #507-BP). Put plainly: SPR (MASS-1), mAb captured on anti-human Fc, hBMP6 in solution, 25 C. The method, then: as §1
The next test concerns the target T5, Human BMP5 (human, UniProt P22003 317-454, limits assumed).
T5 sequence (looked up): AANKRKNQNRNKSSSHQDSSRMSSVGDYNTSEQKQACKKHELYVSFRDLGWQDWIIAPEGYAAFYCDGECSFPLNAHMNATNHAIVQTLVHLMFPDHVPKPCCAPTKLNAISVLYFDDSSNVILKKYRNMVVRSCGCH
Put plainly: BLI (Octet HTX), mAb captured on Protein A sensor, 100 nM ligand, 25 C. The method, then: as §2

B1: H4H17871P (antibody, V domains shown)
VH: EVQLVESGGGLVQPGGSLRLSCAASGFTFNNYAMSWVRQAPGKGLEWVSAISGSGDSTYYADSVKGRFTISRDNSKNTLYLQMNSLRAEDTAVYYCAKRSRSSPFDPWGQGTLVTVSS
VL: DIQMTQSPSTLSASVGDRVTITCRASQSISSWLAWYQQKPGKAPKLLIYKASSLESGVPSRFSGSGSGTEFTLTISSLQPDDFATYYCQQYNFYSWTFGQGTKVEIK
notes: Fully human antibody; also called anti-BMP6 monoclonal antibody; BMP6 antibody of the invention
Take B1: the “IC50 [M], inhibition of 5 nM mBMP6 activation of W-20-17/BRE-luc cells (luciferase)” value in test [1] stood at 1.1e-08 M. For the same molecule, in test [2], the “IC50 [M], inhibition of 1 nM hBMP6 activation of Hep3B/BRE-luc cells (luciferase)” value turned out to be 1.6e-09 M. The values for the Kd in test [3] and in test [4] were 3.39 nM and 4 nM, respectively. Also, the figures for the koff in test [3], in test [4] and in test [5] were 0.000127 s⁻¹, 9.43e-05 s⁻¹ and 4.14e-05 s⁻¹, respectively. For the same molecule, the kon in test [3] amounted to 37400 M⁻¹ s⁻¹; in test [4], 23500 M⁻¹ s⁻¹; in test [5] it was 283000 M⁻¹ s⁻¹. In addition, the figures for the t1/2 in test [3], in test [4] and in test [5] were 1.52 h, 2.05 h and 4.65 h, respectively. Moreover, the binding response was determined as 0 nm with Human BMP7 and 0.01 nm in the test with Human BMP12/GDF7.

B2: H4H17855P (antibody, V domains shown)
VH: B1 VH with N30S, N31S, D56G, S57R, A61T, I70M, S100P, R101Y, S102N
VL: EIVLTQSPGTLSLSPGEGATLSCRASQSVSSSYLAWYQQKPGQAPRLLIYGASSRATGIPDRFSGSGSGTDFTLTISRLEPEDFVVYYCQHFGGTPFTFGGGTKVEIK
notes: as for B1
Regarding B2, the “IC50 [M], inhibition of 5 nM mBMP6 activation of W-20-17/BRE-luc cells (luciferase)” value in test [1] amounted to 1.9e-09 M. In addition, the “IC50 [M], inhibition of 1 nM hBMP6 activation of Hep3B/BRE-luc cells (luciferase)” value in test [2] is 2.5e-10 M. In test [3], this molecule showed a Kd of 3.55 nM, a koff of 0.00013 s⁻¹, an association rate constant (kon) of 36600 M⁻¹ s⁻¹ and a t1/2 of 1.48 h. In the test with Human BMP7, the binding response was 0.05 nm. In the test with Human BMP5, the binding response turned out to be 0.01 nm. In test [4], this molecule showed a Kd of 6.46 nM, a koff of 0.000154 s⁻¹, an association rate constant (kon) of 23800 M⁻¹ s⁻¹ and a t1/2 of 1.25 h. In test [5], the dissociation constant Kd came out at 0.355 nM, the dissociation rate constant (koff) amounted to 6.3e-05 s⁻¹, the on-rate (kon) was determined as 178000 M⁻¹ s⁻¹ and the t1/2 was found to be 3.05 h.

Values taken from patent US20220251184A1 (Regeneron, published 2022).
